Measurements reported in patent US20060067940A1 (WASHINGTON UNIVERSITY, published 2006).

Molecular target: T1, WNV E protein on virions of WNV New York strain (lineage I) (West Nile virus (New York strain), UniProt Q9Q6P4 291-791)
T1 sequence (looked up): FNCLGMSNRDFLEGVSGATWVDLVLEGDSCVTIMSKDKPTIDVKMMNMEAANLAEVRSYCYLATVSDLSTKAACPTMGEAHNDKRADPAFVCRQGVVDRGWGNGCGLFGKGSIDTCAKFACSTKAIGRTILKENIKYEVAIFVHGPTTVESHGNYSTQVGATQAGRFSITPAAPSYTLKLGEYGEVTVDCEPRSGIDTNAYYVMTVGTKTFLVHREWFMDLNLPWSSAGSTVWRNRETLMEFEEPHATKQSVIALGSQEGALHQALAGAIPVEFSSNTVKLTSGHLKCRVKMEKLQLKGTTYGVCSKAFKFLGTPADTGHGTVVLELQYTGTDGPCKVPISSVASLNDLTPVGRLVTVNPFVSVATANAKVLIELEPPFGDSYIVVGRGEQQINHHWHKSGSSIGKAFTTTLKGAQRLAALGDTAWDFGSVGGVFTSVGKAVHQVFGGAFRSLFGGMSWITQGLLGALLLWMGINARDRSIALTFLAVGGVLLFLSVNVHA
Experiment: cell-based or functional assay

B1: WNV E16 (monoclonal antibody produced by hybridoma clone E16 C4 E4, ATCC PTA-6050) (antibody, V domains shown)
VH: QVQLQQSGSELMKPGASVQISCKATGYTFSDYWIEWVKQRPGHGLEWIGDILCGTGRTRYNEKLKAMATFTADTSSNTAFMQLSSLTSEDSAVYYCARSASYGDYADYWGHGTTLTVSS
VL: DIVMTQSHKFMSTSVGDRVSITCKASQDVSTAVAWYQQKPGQSPKLLISWASTRHTGVPDRFTGSGSGTDYTLTISSVQAEDLALYYCQQHYTTPLTFGAGTKLELK
  PRNT assay, potency against human γ-globulin preparation: ~1000 fold
